Measured values reported in patent publication US20240270803A1 (Daiichi Sankyo, published 2024).

How the values were obtained:
Assay in all cases: cell-based or functional assay
[1] = biological target: T1, full-length HTRA1 (HTRA1 (full)) (human, UniProt Q92743 23-480)
[2] = biological target: T2, HTRA1 protease domain HTRA1 (cat) (human, UniProt F1N152 165-380 (bovine entry))
[3] = biological target: T1, full-length HTRA1 (HTRA1 (full)); remark: listed apart in the source
[4] = biological target: T2, HTRA1 protease domain HTRA1 (cat); remark: listed apart in the source

T2 sequence (F1N152 165-380): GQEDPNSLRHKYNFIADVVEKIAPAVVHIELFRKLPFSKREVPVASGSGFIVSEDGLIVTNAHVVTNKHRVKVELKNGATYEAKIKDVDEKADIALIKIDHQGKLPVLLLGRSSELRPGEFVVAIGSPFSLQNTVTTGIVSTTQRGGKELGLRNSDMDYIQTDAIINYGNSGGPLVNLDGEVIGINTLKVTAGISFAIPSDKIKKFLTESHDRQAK
T1 sequence (Q92743 23-480): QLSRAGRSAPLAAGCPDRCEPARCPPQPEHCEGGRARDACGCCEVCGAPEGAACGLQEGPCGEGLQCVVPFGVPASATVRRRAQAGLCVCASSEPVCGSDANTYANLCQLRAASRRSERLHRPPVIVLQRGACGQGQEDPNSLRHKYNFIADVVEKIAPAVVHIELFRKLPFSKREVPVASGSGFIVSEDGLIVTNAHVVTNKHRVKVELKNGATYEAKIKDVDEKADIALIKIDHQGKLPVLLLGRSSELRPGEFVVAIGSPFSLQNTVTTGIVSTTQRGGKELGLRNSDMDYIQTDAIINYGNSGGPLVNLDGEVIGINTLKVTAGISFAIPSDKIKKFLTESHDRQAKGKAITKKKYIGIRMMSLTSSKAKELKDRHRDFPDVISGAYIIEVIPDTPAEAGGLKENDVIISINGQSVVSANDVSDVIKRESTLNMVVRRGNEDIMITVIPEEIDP

Row | IC50 (nM) for HTRA1 (full); decomposition rate of substrate peptide H2-Opt [1] | IC50 (nM) for HTRA1 (cat); decomposition rate of substrate peptide H2-Opt [2] | IC50 (nM) for HTRA1 (full); decomposition rate of substrate peptide H2-Opt (n=3) [3] | IC50 (nM) for HTRA1 (cat); decomposition rate of substrate peptide H2-Opt (n=3) [4] | Binder
1 | 31 nM | 49 nM |  |  | peptide derivative H308AT (designed binder) DPQFGLFSKYRTPNCSDHAGMACVALYEPVCGSDMSTYANECTLCMKIREGGHNIKIIRNGPCGG
2 | 24 nM | 43 nM |  |  | peptide M7 (designed binder) DPQFGLFSKYRTPNCSDHAGMACVAFYEPVCGSDMSTYANECTLCMKIREGGHNIKIIRNGPCGG
3 |  |  | 12 nM | 9 nM | peptide derivative H321AT_D1G_S16A (designed binder) GPQFGLFSKYRTPNCADFDGMACYAFYEPVCGSDMSTYANECTLCMKIREGGHNIKIIRNGPCGG
4 |  |  | 12.2 nM | 12.9 nM | peptide derivative H322AT_D1G_S16A (designed binder) GPQFGLFSKYRTPNCAQHEGMACYALYEPVCGSDMSTYANECTLCMKIREGGHNIKIIRNGPCGG
5 |  |  | 9.1 nM | 7.9 nM | peptide derivative H308_D1G_S16A (designed binder) GPQFGLFSKYRTPNCADHAGMACVALYEPVCGSDMSTYENECVLCMKIREGGHNIKIIRNGPCGG
6 | 18 nM | 46 nM |  |  | peptide derivative H321AT (designed binder) DPQFGLFSKYRTPNCSDFDGMACYAFYEPVCGSDMSTYANECTLCMKIREGGHNIKIIRNGPCGG

The next lines start with the binder.

Row | Binder | IC50 (nM) for HTRA1 (full); decomposition rate of substrate peptide H2-Opt [1] | IC50 (nM) for HTRA1 (cat); decomposition rate of substrate peptide H2-Opt [2] | IC50 (nM) for HTRA1 (full); decomposition rate of substrate peptide H2-Opt (n=3) [3] | IC50 (nM) for HTRA1 (cat); decomposition rate of substrate peptide H2-Opt (n=3) [4]
7 | peptide derivative H322AT (designed binder) DPQFGLFSKYRTPNCSQHEGMACYALYEPVCGSDMSTYANECTLCMKIREGGHNIKIIRNGPCGG | 25 nM | 45 nM |  | 
8 | peptide H321 (designed binder) DPQFGLFSKYRTPNCSDFDGMACYAFYEPVCGSDMSTYMNECALCMKIREGGHNIKIIRNGPCGG | 29 nM | 48 nM |  | 
9 | peptide H322 (designed binder) DPQFGLFSKYRTPNCSQHEGMACYALYEPVCGSDMSTYVNECALCMKIREGGHNIKIIRNGPCGG | 17 nM | 50 nM |  | 
10 | peptide H228 (designed binder) DPQFGLFSKYRTPNCGHYNGWACQAFFEPVCGSDMSTYANECTLCMKIREGGHNIKIIRNGPCGG | 38 nM | 71 nM |  | 
11 | peptide H223 (designed binder) DPQFGLFSKYRTPNCTMDMGMACWAFYEPVCGSDMSTYANECTLCMKIREGGHNIKIIRNGPCGG | 66 nM | 41 nM |  | 
12 | peptide H218 (designed binder) DPQFGLFSKYRTPNCLKSEGMACYAYYEPVCGSDMSTYANECTLCMKIREGGHNIKIIRNGPCGG | 55 nM | 72 nM |  | 
13 | peptide H308 (designed binder) DPQFGLFSKYRTPNCSDHAGMACVALYEPVCGSDMSTYENECVLCMKIREGGHNIKIIRNGPCGG | 15 nM | 37 nM |  | 
